According to the supplement of paper PMC11316812:
± gives the standard deviation of the averaged measurements.

Columns and labels:
[1] = tested on: MCF7; test: percentage of EdU-negative (G0-arrested) nuclei per well, 72 h; higher = more G0 arrest; details: reference: sequence is the full UniProt precursor, the tested protein was the secreted form or ectodomain
[2] = tested on: hTERT-HMEC; test: as above; details: reference: sequence is the full UniProt precursor, the tested protein was the secreted form or ectodomain
[3] = protein concentration 0.03125 µM
[4] = protein concentration 0.3125 µM
[5] = protein concentration 0.0225 µM
[6] = protein concentration 0.0322857 µM
[7] = protein concentration 0.0337143 µM
[8] = protein concentration 0.322857 µM
[9] = protein concentration 0.337143 µM
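Further: secreted proteins added to cultured cells, EdU pulse at the end, nuclei found by Hoechst imaging, EdU status from nuclear versus surrounding ring intensity ratio, PBS as neutral control.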

Sequence	percentage of EdU-negative [1, 5]	percentage of EdU-negative ([1]; protein concentration 0.225 µM)	percentage of EdU-negative [2, 5]	percentage of EdU-negative ([2]; protein concentration 0.225 µM)	further results
MLPLWTLSLLLGAVAGKEVCYERLGCFSDDSPWSGITERPLHILPWSPKDVNTRFLLYTNENPNNFQEVAADSSSISGSNFKTNRKTRFIIHGFIDKGEENWLANVCKNLFKVESVNCICVDWKGGSRTGYTQASQNIRIVGAEVAYFVEFLQSAFGYSPSNVHVIGHSLGAHAAGEAGRRTNGTIGRITGLDPAEPCFQGTPELVRLDPSDAKFVDVIHTDGAPIVPNLGFGMSQVVGHLDFFPNGGVEMPGCKKNILSQIVDIDGIWEGTRDFAACNHLRSYKYYTDSIVNPDGFAGFPCASYNVFTANKCFPCPSGGCPQMGHYADRYPGKTNDVGQKFYLDTGDASNFARWRYKVSVTLSGKKVTGHILVSLFGNKGNSKQYEIFKGTLKPDSTHSNEFDSDVDVGDLQMVKFIWYNNVINPTLPRVGASKIIVETNVGKQFNFCSPETVREEVLLTLTPC					percentage of EdU-negative [1, 3]: 22.6 ± 0.74%; percentage of EdU-negative [1, 4]: 24.8 ± 1.1%; percentage of EdU-negative [2, 3]: 4.88 ± 0.32%; percentage of EdU-negative [2, 4]: 5.95 ± 0.29%
MLPPMALPSVSWMLLSCLILLCQVQGEETQKELPSPRISCPKGSKAYGSPCYALFLSPKSWMDADLACQKRPSGKLVSVLSGAEGSFVSSLVRSISNSYSYIWIGLHDPTQGSEPDGDGWEWSSTDVMNYFAWEKNPSTILNPGHCGSLSRSTGFLKWKDYNCDAKLPYVCKFKD [Q6UW15]	25.43 ± 0.028%	26.8 ± 1.6%	4.59 ± 0.17%	5.21 ± 0.13%	
MLPPMALPSVSWMLLSCLMLLSQVQGEEPQRELPSARIRCPKGSKAYGSHCYALFLSPKSWTDADLACQKRPSGNLVSVLSGAEGSFVSSLVKSIGNSYSYVWIGLHDPTQGTEPNGEGWEWSSSDVMNYFAWERNPSTISSPGHCASLSRSTAFLRWKDYNCNVRLPYVCKFTD					percentage of EdU-negative [1, 6]: 24.2 ± 2.7%; percentage of EdU-negative [1, 7]: 24.3 ± 1.6%; percentage of EdU-negative [1, 8]: 26.7 ± 1.1%; percentage of EdU-negative [1, 9]: 27.4 ± 2.9%; percentage of EdU-negative [2, 6]: 5.46 ± 0.53%; percentage of EdU-negative [2, 7]: 5.04 ± 0.18%; percentage of EdU-negative [2, 8]: 7.94 ± 0.33%; percentage of EdU-negative [2, 9]: 6.63 ± 1.3%
MLPPPRPAAALALPVLLLLLVVLTPPPTGARPSPGPDYLRRGWMRLLAEGEGCAPCRPEECAAPRGCLAGRVRDACGCCWECANLEGQLCDLDPSAHFYGHCGEQLECRLDTGGDLSRGEVPEPLCACRSQSPLCGSDGHTYSQICRLQEAARARPDANLTVAHPGPCESGPQIVSHPYDTWNVTGQDVIFGCEVFAYPMASIEWRKDGLDIQLPGDDPHISVQFRGGPQRFEVTGWLQIQAVRPSDEGTYRCLGRNALGQVEAPASLTVLTPDQLNSTGIPQLRSLNLVPEEEAESEENDDYY [Q96I82]	25.7 ± 0.96%	28.1 ± 2.9%	5.43 ± 0.24%	5.18 ± 0.4%	
MLPPWTLGLLLLATVRGKEVCYGQLGCFSDEKPWAGTLQRPVKLLPWSPEDIDTRFLLYTNENPNNFQLITGTEPDTIEASNFQLDRKTRFIIHGFLDKAEDSWPSDMCKKMFEVEKVNCICVDWRHGSRAMYTQAVQNIRVVGAETAFLIQALSTQLGYSLEDVHVIGHSLGAHTAAEAGRRLGGRVGRITGLDPAGPCFQDEPEEVRLDPSDAVFVDVIHTDSSPIVPSLGFGMSQKVGHLDFFPNGGKEMPGCKKNVLSTITDIDGIWEGIGGFVSCNHLRSFEYYSSSVLNPDGFLGYPCASYDEFQESKCFPCPAEGCPKMGHYADQFKGKTSAVEQTFFLNTGESGNFTSWRYKISVTLSGKEKVNGYIRIALYGSNENSKQYEIFKGSLKPDASHTCAIDVDFNVGKIQKVKFLWNKRGINLSEPKLGASQITVQSGEDGTEYNFCSSDTVEENVLQSLYPC	25.9 ± 0.35%	26.41 ± 0.1%	4.69 ± 0.62%	5.7 ± 0.076%	
